# Source: US20230212285A1 (published 2023)
# Target: T1, cynomolgus monkey C-KIT-Fc protein (cynomolgus monkey)
# T1 construct: also called cyno C-KIT-Fc; cyno C-KIT
# Experiment: direct ELISA, IgG at 1 µg/ml
row,Binder,OD450 nm [OD450 nm]
1,"MH5.22 (antibody, human IgG1, V domains shown, graft frameworks; substitutions derived; human IgG1; also called C-KIT-MH5.22) VH: QVQLVQSGAEVKKPGASVKVSCKASGYTFTDFYMNWVRQAPGQGLEWMGRIYPASGNTYYAQKFQGRVTMTRDTSTSTVYMELSSLRSEDTAVYYCARGVWYYDYWGQGTLVTVSS VL: DIQMTQSPSSLSASVGDRVTITCRASQGIRTNLAWFQQKPGKAPKSLIYAASSLQSGVPSRFSGSGSGTDFTLTISSLQPEDFATYYCQQYANYPRTFGGGTKVEIK",> 2
2,"E-C7 (antibody, human IgG1, V domains shown, human IgG1; also called C-KIT-E-C7) VH: QVQLVQSGAEVKKPGASVKVSCKASGYTFTDYYMNWVRQAPGQGLEWMGRIYPGSGNTYYAQKFQGRVTMTRDTSTSTVYMELSSLRSEDTAVYYCARGVYYYDYWGQGTLVTVSS VL: DIQMTQSPSSLSASVGDRVTITCRASQGIRTNLAWFQQKPGKAPKSLIYSASSLQSGVPSRFSGSGSGTDFTLTISSLQPEDFATYYCQQYNSYPRTFGGGTKVEIK",> 2
3,"MH5 IgG1 (antibody, V domains shown, human IgG1; also called C-KIT-MH5) VH: QVQLVQSGAEVKKPGASVKVSCKASGYTFTDYYMNWVRQAPGQGLEWMGRIYPGSGNTYYAQKFQGRVTMTRDTSTSTVYMELSSLRSEDTAVYYCARGVYYYDYWGQGTLVTVSS VL: DIQMTQSPSSLSASVGDRVTITCRASQGIRTNLAWFQQKPGKAPKSLIYSASSLQSGVPSRFSGSGSGTDFTLTISSLQPEDFATYYCQQYANYPRTFGGGTKVEIK",> 2
4,"E-C2 (antibody, human IgG1, V domains shown, human IgG1; also called C-KIT-E-C2) VH: QVQLVQSGAEVKKPGASVKVSCKASGYTFTDYYMNWVRQAPGQGLEWMGRIYPGSGNTYYAQKFQGRVTMTRDTSTSTVYMELSSLRSEDTAVYYCARGVYYLDYWGQGTLVTVSS VL: DIQMTQSPSSLSASVGDRVTITCRASQGIRTNVAWLQQKPGKAPKSLIYSASYRQSGVPSRFSGSGSGTDFTLTISSLQPEDFATYYCQQYNSYPRTFGGGTKVEIK",> 2
5,"MH1 IgG1 (antibody, V domains shown, human IgG1; also called IgG1-MH1; C-KIT-MH1) VH: QVQLVQSGAEVKKPGASVKVSCKASGYTFTDYYMNWVRQAPGQGLEWMGRIYPGSGNTYYAQKFQGRVTMTRDTSTSTVYMELSSLRSEDTAVYYCARGVYYYDYWGQGTLVTVSS VL: DIQMTQSPSSLSASVGDRVTITCRASQGIRTNLAWFQQKPGKAPKSLIYAASSLQSGVPSRFSGSGSGTDFTLTISSLQPEDFATYYCQQYNSYPRTFGGGTKVEIK",> 2

# Target: T1, cynomolgus monkey C-KIT-Fc protein
# Experiment: HTRF competition vs terbium-labelled h37M IgG1
row,Binder,IC50 [µg/mL]
1,"MH5.22 (antibody, human IgG1, V domains shown, graft frameworks; substitutions derived; human IgG1; also called C-KIT-MH5.22) VH: QVQLVQSGAEVKKPGASVKVSCKASGYTFTDFYMNWVRQAPGQGLEWMGRIYPASGNTYYAQKFQGRVTMTRDTSTSTVYMELSSLRSEDTAVYYCARGVWYYDYWGQGTLVTVSS VL: DIQMTQSPSSLSASVGDRVTITCRASQGIRTNLAWFQQKPGKAPKSLIYAASSLQSGVPSRFSGSGSGTDFTLTISSLQPEDFATYYCQQYANYPRTFGGGTKVEIK",0.164
2,"MH5 IgG1 (antibody, V domains shown, human IgG1; also called C-KIT-MH5) VH: QVQLVQSGAEVKKPGASVKVSCKASGYTFTDYYMNWVRQAPGQGLEWMGRIYPGSGNTYYAQKFQGRVTMTRDTSTSTVYMELSSLRSEDTAVYYCARGVYYYDYWGQGTLVTVSS VL: DIQMTQSPSSLSASVGDRVTITCRASQGIRTNLAWFQQKPGKAPKSLIYSASSLQSGVPSRFSGSGSGTDFTLTISSLQPEDFATYYCQQYANYPRTFGGGTKVEIK",0.058
3,"MH5.35 (antibody, human IgG1, V domains shown, graft frameworks; substitutions derived; human IgG1; also called C-KIT-MH5.35) VH: QVQLVQSGAEVKKPGASVKVSCKASGYTFTNYYMNWVRQAPGQGLEWMGRIYPASGNTYYAQKFQGRVTMTRDTSTSTVYMELSSLRSEDTAVYYCARGVWYFDTWGQGTLVTVSS VL: DIQMTQSPSSLSASVGDRVTITCRASQGIRTNLAWFQQKPGKAPKSLIYAASSLQSGVPSRFSGSGSGTDFTLTISSLQPEDFATYYCQQYANYPRTFGGGTKVEIK",0.785
4,"MH5.1 (antibody, human IgG1, V domains shown, graft frameworks; substitutions derived; human IgG1; also called C-KIT-MH5.1) VH: QVQLVQSGAEVKKPGASVKVSCKASGYTFTNYYMNWVRQAPGQGLEWMGRIYPGTGNTYYAQKFQGRVTMTRDTSTSTVYMELSSLRSEDTAVYYCARGVWYYDYWGQGTLVTVSS VL: DIQMTQSPSSLSASVGDRVTITCRASQGIRTNLAWFQQKPGKAPKSLIYAASSLQSGVPSRFSGSGSGTDFTLTISSLQPEDFATYYCQQYANYPRTFGGGTKVEIK",0.633
5,"MH5.34 (antibody, human IgG1, V domains shown, graft frameworks; substitutions derived; human IgG1; also called C-KIT-MH5.34) VH: QVQLVQSGAEVKKPGASVKVSCKASGYTFTNYYMNWVRQAPGQGLEWMGRIYPASGNTYYAQKFQGRVTMTRDTSTSTVYMELSSLRSEDTAVYYCARGVWYFDSWGQGTLVTVSS VL: DIQMTQSPSSLSASVGDRVTITCRASQGIRTNLAWFQQKPGKAPKSLIYAASSLQSGVPSRFSGSGSGTDFTLTISSLQPEDFATYYCQQYANYPRTFGGGTKVEIK",0.532
6,"MH5.24 (antibody, human IgG1, V domains shown, graft frameworks; substitutions derived; human IgG1; also called C-KIT-MH5.24) VH: QVQLVQSGAEVKKPGASVKVSCKASGYTFTDFYMNWVRQAPGQGLEWMGRIYPASGNTYYAQKFQGRVTMTRDTSTSTVYMELSSLRSEDTAVYYCARGVWYFDTWGQGTLVTVSS VL: DIQMTQSPSSLSASVGDRVTITCRASQGIRTNLAWFQQKPGKAPKSLIYAASSLQSGVPSRFSGSGSGTDFTLTISSLQPEDFATYYCQQYANYPRTFGGGTKVEIK",2.74
7,"MH5.2 (antibody, human IgG1, V domains shown, graft frameworks; substitutions derived; human IgG1; also called C-KIT-MH5.2) VH: QVQLVQSGAEVKKPGASVKVSCKASGYTFTDFYMNWVRQAPGQGLEWMGRIYPGTGNTYYAQKFQGRVTMTRDTSTSTVYMELSSLRSEDTAVYYCARGVWYYDYWGQGTLVTVSS VL: DIQMTQSPSSLSASVGDRVTITCRASQGIRTNLAWFQQKPGKAPKSLIYAASSLQSGVPSRFSGSGSGTDFTLTISSLQPEDFATYYCQQYANYPRTFGGGTKVEIK",0.254
8,"MH5.23 (antibody, human IgG1, V domains shown, graft frameworks; substitutions derived; human IgG1; also called C-KIT-MH5.23) VH: QVQLVQSGAEVKKPGASVKVSCKASGYTFTDFYMNWVRQAPGQGLEWMGRIYPASGNTYYAQKFQGRVTMTRDTSTSTVYMELSSLRSEDTAVYYCARGVWYFDSWGQGTLVTVSS VL: DIQMTQSPSSLSASVGDRVTITCRASQGIRTNLAWFQQKPGKAPKSLIYAASSLQSGVPSRFSGSGSGTDFTLTISSLQPEDFATYYCQQYANYPRTFGGGTKVEIK",3.26

# Target: T1, cynomolgus monkey C-KIT-Fc protein
# Experiment: HTRF competition vs terbium-labelled h37M IgG1
# Remark: another data set of the same source
row,Binder,IC50 [µg/mL]
1,"E-C7 (antibody, human IgG1, V domains shown, human IgG1; also called C-KIT-E-C7) VH: QVQLVQSGAEVKKPGASVKVSCKASGYTFTDYYMNWVRQAPGQGLEWMGRIYPGSGNTYYAQKFQGRVTMTRDTSTSTVYMELSSLRSEDTAVYYCARGVYYYDYWGQGTLVTVSS VL: DIQMTQSPSSLSASVGDRVTITCRASQGIRTNLAWFQQKPGKAPKSLIYSASSLQSGVPSRFSGSGSGTDFTLTISSLQPEDFATYYCQQYNSYPRTFGGGTKVEIK",0.051
2,"C-B12 (antibody, human IgG1, V domains shown, graft frameworks; substitutions derived; human IgG1; also called C-KIT-C-B12) VH: QVQLVQSGAEVKKPGASVKVSCKASGYTFTDYYMNWVRQAPGQGLEWMGRIYPGSGNTYYAQKFQGRVTMTRDTSTSTVYMELSSLRSEDTAVYYCARGVYEFDYWGQGTLVTVSS VL: DIQMTQSPSSLSASVGDRVTITCRASQGVRNNLAWFQQKPGKAPKSLIYAASYRQSGVPSRFSGSGSGTDFTLTISSLQPEDFATYYCQQYNSYPRTFGGGTKVEIK",0.166
3,"F-C5 (antibody, human IgG1, V domains shown, human IgG1; also called C-KIT-F-C5) VH: QVQLVQSGAEVKKPGASVKVSCKASGYTFTDYYMNWVRQAPGQGLEWMGRIYPGSGNTYYAQKFQGRVTMTRDTSTSTVYMELSSLRSEDTAVYYCARGVYYFDEWGQGTLVTVSS VL: DIQMTQSPSSLSASVGDRVTITCRASQGVRTNLAWFQQKPGKAPKSLIYAASSRQSGVPSRFSGSGSGTDFTLTISSLQPEDFATYYCQQYNSYPRTFGGGTKVEIK",0.079
4,"C-A7 (antibody, human IgG1, V domains shown, graft frameworks; substitutions derived; human IgG1; also called C-KIT-C-A7) VH: QVQLVQSGAEVKKPGASVKVSCKASGYTFTDYYMNWVRQAPGQGLEWIGRIYPGSGNTYYAQKFQGRVTMTRDTSTSTVYMELSSLRSEDTAVYYCARGVYYFDSWGQGTLVTVSS VL: DIQMTQSPSSLSASVGDRVTITCRASQGVRNNVAWFQQKPGKAPKSLIYYASSLQSGVPSRFSGSGSGTDFTLTISSLQPEDFATYYCQQYNSYPRTFGGGTKVEIK",0.081
5,"MH5 IgG1 (antibody, V domains shown, human IgG1; also called C-KIT-MH5) VH: QVQLVQSGAEVKKPGASVKVSCKASGYTFTDYYMNWVRQAPGQGLEWMGRIYPGSGNTYYAQKFQGRVTMTRDTSTSTVYMELSSLRSEDTAVYYCARGVYYYDYWGQGTLVTVSS VL: DIQMTQSPSSLSASVGDRVTITCRASQGIRTNLAWFQQKPGKAPKSLIYSASSLQSGVPSRFSGSGSGTDFTLTISSLQPEDFATYYCQQYANYPRTFGGGTKVEIK",0.036
6,"F-F2 (antibody, human IgG1, V domains shown, graft frameworks; substitutions derived; human IgG1; also called C-KIT-F-F2) VH: QVQLVQSGAEVKKPGASVKVSCKASGYTFTDYYMNWVRQAPGQGLEWMGRIYPGSGNTYYAQKFQGRVTMTRDTSTSTVYMELSSLRSEDTAVYYCARGVYYQDYWGQGTLVTVSS VL: DIQMTQSPSSLSASVGDRVTITCRASQGVRTNVAWFQQKPGKAPKSLIYAASSRQSGVPSRFSGSGSGTDFTLTISSLQPEDFATYYCQQYNSYPRTFGGGTKVEIK",0.121
7,"MH11 (antibody, human IgG1, V domains shown, graft frameworks; substitutions derived; human IgG1; also called C-KIT-MH11) VH: QVQLVQSGAEVKKPGASVKVSCKASGYTFTDYYMNWVRQAPGQGLEWMGRIYPGSGNTYYAQKFQGRVTMTRDTSTSTVYMELSSLRSEDTAVYYCARGVYYYDYWGQGTLVTVSS VL: DIQMTQSPSSLSASVGDRVTITCRASQGIRTNLAWFQQKPGKAPKSLIYAASSLQSGVPSRFSGSGSGTDFTLTISSLQPEDFATYYCQQYNAYPRTFGGGTKVEIK",0.101
8,"E-E10 (antibody, human IgG1, V domains shown, graft frameworks; substitutions derived; human IgG1; also called C-KIT-E-E10) VH: QVQLVQSGAEVKKPGASVKVSCKASGYTFTDYYMNWVRQAPGQGLEWMGRIYPGSGNTYYAQKFQGRVTMTRDTSTSTVYMELSSLRSEDTAVYYCARGVWYFDYWGQGTLVTVSS VL: DIQMTQSPSSLSASVGDRVTITCRASQGVRTNVAWFQQKPGKAPKSLIYSASSLQSGVPSRFSGSGSGTDFTLTISSLQPEDFATYYCQQYNSYPRTFGGGTKVEIK",0.097
9,"D-A10 (antibody, human IgG1, V domains shown, graft frameworks; substitutions derived; human IgG1; also called C-KIT-D-A10) VH: QVQLVQSGAEVKKPGASVKVSCKASGYTFTDYYMNWVRQAPGQGLEWMGRIYPGSGNTYYAQKFQGRVTMTRDTSTSTVYMELSSLRSEDTAVYYCARGVYYFDTWGQGTLVTVSS VL: DIQMTQSPSSLSASVGDRVTITCRASQGVRTNLAWFQQKPGKAPKSLIYAASSRQSGVPSRFSGSGSGTDFTLTISSLQPEDFATYYCQQYNSYPRTFGGGTKVEIK",0.059

# Target: cynomolgus C-KIT on stably transfected CHO-K1 cells (cynomolgus monkey)
# Experiment: cell-based or functional assay
row,Binder,Cyno C-KIT CHO FabZAP IC50 (pM)
1,"MH1 IgG1-3M (antibody, V domains shown) VH: QVQLVQSGAEVKKPGASVKVSCKASGYTFTDYYMNWVRQAPGQGLEWMGRIYPGSGNTYYAQKFQGRVTMTRDTSTSTVYMELSSLRSEDTAVYYCARGVYYYDYWGQGTLVTVSS VL: DIQMTQSPSSLSASVGDRVTITCRASQGIRTNLAWFQQKPGKAPKSLIYAASSLQSGVPSRFSGSGSGTDFTLTISSLQPEDFATYYCQQYNSYPRTFGGGTKVEIK",14
2,"MH5-DI IgG1-3M (antibody, V domains shown) VH: QVQLVQSGAEVKKPGASVKVSCKASGYTFTDYYMNWVRQAPGQGLEWMGRIYPGSGNTYYAQKFQGRVTMTRDTSTSTVYMELSSLRSEDTAVYYCARGVYYYDYWGQGTLVTVSS VL: DIQMTQSPSSLSASVGDRVTITCRASQGIRTNLAWFQQKPGKAPKSLIYAASSLQSGVPSRFSGSGSGTDFTLTISSLQPEDFATYYCQQYANYPRTFGGGTKVEIK",13.5
